Experimental data published in patent US20140370568A1, “Specialized (iso)eugenol-4-O-methyltransferases (s-IEMTs) and Methods of Making and Using the Same” (Brookhaven Science Associates, LLC, priority 2013, published 2014).

How the values were obtained:
[1] = substrate: COc1cc(/C=C/CO)ccc1O; experiment: Enzyme kinetics of MOMT9-1 (4-O-methylation of phenolic substrates); format: biochemical, C. breweri; settings: other: MOMT9-1
Excerpt: (§1) Further shaping of the substrate binding pocket targeting residues Thr-319, Ile-165, Leu-133 and Leu-143 by Iterative Saturation Mutagenesis using MOMT8-1 as the starting point lead to the generation of MOMT9-1 which carried all of the substitutions of MOMT8-1 and an additional substitution of Met for Thr at position 319. Thus MOMT9-1 is a specialized (iso)eugenol-4-O-methyltransferase (s-IEMT) having 6-fold higher specific activity with coniferyl alcohol as the substrate compared to its specific activity with sinapyl alcohol as substrate. The s-IEMT designated MOMT9-1 comprises a specialized (iso)eugenol-4-O-methyltransferase having the following substitutions: T133L/E165I/F175I/F166W/H169F/M26H/S30R/V33S/T319M where amine acid residue numbers correspond to those of SEQ ID NO. 1.
(§2) Each of the s-IEMTs was isolated following expression in bacterial cells of nucleic acid sequences encoding the enzymes. The isolated enzymes were analyzed for their substrate versatility, specificity and enzyme kinetics on various phenolic substrates.

[2] = substrate: COc1cc(/C=C/CO)cc(OC)c1O; experiment: as above; format: biochemical, C. breweri; settings: other: MOMT9-1
Excerpt: as §1, §2

[3] = substrate: COc1cc(/C=C/CO)ccc1O; experiment: Enzyme kinetics of MOMT-5 (4-O-methylation of phenolic substrates); format: biochemical, C. breweri; settings: other: MOMT-5
Excerpt: (§3) Starting with a modified (iso)eugenol-4-O-methyltransferase (m-IEMT) previously designated MOMT-5 having the five substitutions Leu for Thr at 133, Ile for Glu at 165, Ile for Phe at 175, Trp for Phe at 166 and Phe for His at 169 (T133L/E165I/F175I/F166W/H169F), where the amino acid residue numbers correspond to those for the C. breweri (iso)eugenol-4-O-methyltransferase protein (SEQ ID NO. 1), the synergistic effects of simultaneously modifying adjacent amino acids located in the substrate binding pocket have been explored. Specialized (iso)eugenol-4-O-methyltransferases (s-IEMTs) were generated that have relatively little activity on sinapyl alcohol compared to activity on p-coniferyl alcohol. Some species of s-IEMT have enhanced activity toward 4-O-methylation of ferulic acid. Additional species of s-IEMT have the capacity to generate iso-sinapyl alcohol. These s-IEMTs are useful for altering lignin precursors in plants, altering lignin composition in plants, and for producing potentially useful chemicals and chemical feedstock in plants as well as in different heterologous expression systems. […]
as §2
(§4) The specific activity of the various m-IEMT (MOMT-5) and s-IEMTs (MOMT8-2 and MOMT8-3) are shown in Table 4 and enzyme kinetic analysis is shown in Table 5.

[4] = substrate: COc1cc(/C=C/CO)cc(O)c1O; experiment: as above; format: biochemical, C. breweri; settings: other: MOMT-5
Excerpt: as §3, §2, §4

[5] = substrate: COc1cc(/C=C/CO)cc(OC)c1O; experiment: as above; format: biochemical, C. breweri; settings: other: MOMT-5
Excerpt: as §3, §2, §4

[6] = substrate: COc1cc(/C=C/CO)ccc1O; experiment: Enzyme kinetics of MOMT8-1 (4-O-methylation of phenolic substrates); format: biochemical, C. breweri; settings: other: MOMT8-1
Excerpt: (§5) The first library examined amino acid substitutions at positions not previously explored, i.e., Met-26, Ser-30 and Val-33. The specialized (iso)eugenol-4-O-methyltransferase (s-IEMT) having all of the MOMT-5 substitutions and the additional substitution of His for Met at position 26, Arg for Ser at 30 and Ser for Val at 33 was designated MOMT8-1. The ratio of its activity for methylation of p-coniferyl alcohol versus methylation of p-sinapyl alcohol was 7.5:1 whereas the ratio of activity of MOMT-5 was about 4.2:1.
as §2

[7] = substrate: COc1cc(/C=C/CO)cc(OC)c1O; experiment: as above; format: biochemical, C. breweri; settings: other: MOMT8-1
Excerpt: as §5, §2

[8] = substrate: COc1cc(/C=C/CO)ccc1O; experiment: Enzyme kinetics of MOMT8-2 (4-O-methylation of phenolic substrates); format: biochemical, C. breweri; settings: other: MOMT8-2
Protocol: as §2
(§6) Iso-synapyl alcohol is thought to have the potential to be incorporated into lignin. These two additional specialized IEMT's having eight amino acid substitutions are designated as follows and have the indicated substitutions:
as §4

[9] = substrate: COc1cc(/C=C/CO)cc(O)c1O; experiment: as above; format: biochemical, C. breweri; settings: other: MOMT8-2
Protocol: as §2, §6, §4

[10] = substrate: COc1cc(/C=C/CO)cc(OC)c1O; experiment: as above; format: biochemical, C. breweri; settings: other: MOMT8-2
Protocol: as §2, §6, §4

[11] = substrate: COc1cc(/C=C/CO)ccc1O; experiment: Enzyme kinetics of MOMT8-3 (4-O-methylation of phenolic substrates); format: biochemical, C. breweri; settings: other: MOMT8-3
Protocol: as §2, §6, §4

[12] = substrate: COc1cc(/C=C/CO)cc(O)c1O; experiment: as above; format: biochemical, C. breweri; settings: other: MOMT8-3
Protocol: as §2, §6, §4

[13] = substrate: COc1cc(/C=C/CO)cc(OC)c1O; experiment: as above; format: biochemical, C. breweri; settings: other: MOMT8-3
Protocol: as §2, §6, §4

[14] = Specific activity with 5-hydroxyl coniferyl alcohol (formation of iso-sinapyl alcohol); format: biochemical; settings: substrate 5-hydroxyl coniferyl alcohol; product iso-sinapyl alcohol
Protocol: as §2
Iso-synapyl alcohol is thought to have the potential to be incorporated into lignin. These two additional specialized IEMT's having eight amino acid substitutions are designated as follows and have the indicated substitutions: […]

[15] = Enzyme kinetics, coniferyl alcohol as substrate; format: biochemical; settings: coniferyl alcohol versus sinapyl alcohol
Protocol: as §2

[16] = Specific activity with ferulic acid as the substrate; format: biochemical
Protocol: as §2

B1: C. breweri (iso)eugenol-4-O-methyltransferase (SEQ ID NO. 1) variant MOMT9-1, T133L/E165I/F175I/F166W/H169F/M26H/S30R/V33S/T319M (Clarkia breweri; … (protein)
chain: STGNAEIQIIPTHSSDEEANLFAHQLARAASLPMALKAAIELDVLEIMAKSVPPSGYISPAEIAAQLPTTNPEAPVMLDRVLRLLASYSVVTYTLRELPSGKVERLYGLAPVCKFLTKNEDGVSLAPFLLLATDKVLLEPWFYLKDAILEGGIPFNKAYGMNIWDYFGTDHRINKVFNKGMSSNSTITMKKILEMYNGFEGLTTIVDVGGGTGAVASMIVAKYPSINAINFDLPHVIQDAPAFSGVEHLGGDMFDGVPKGDAIFIKWICHDWSDEHCLKLLKNCYAALPDHGKVIVAEYILPPSPDPSIATKVVIHMDALMLAYNPGGKERTEKEFQALAMASGFRGFKVASCAFNTYVMEFLKTA
[1]
  Km: 16.1 ± 1.4 µM
  Vmax: 88.4 ± 1.7 nmol/mg/min
  kcat: 0.063 ± 0.001 s⁻¹
[2]
  Km: 109.5 ± 4.0 µM
  Vmax: 24.2 ± 0.3 nmol/mg/min
  kcat: 0.017 ± 0.0002 s⁻¹

B2: C. breweri (iso)eugenol-4-O-methyltransferase (SEQ ID NO. 1) variant MOMT-5, T133L/E165I/F175I/F166W/H169F (Clarkia breweri; E165I/F166W/F175I/H169F/T133L) (protein)
chain: STGNAEIQIIPTHSSDEEANLFAMQLASAAVLPMALKAAIELDVLEIMAKSVPPSGYISPAEIAAQLPTTNPEAPVMLDRVLRLLASYSVVTYTLRELPSGKVERLYGLAPVCKFLTKNEDGVSLAPFLLLATDKVLLEPWFYLKDAILEGGIPFNKAYGMNIWDYFGTDHRINKVFNKGMSSNSTITMKKILEMYNGFEGLTTIVDVGGGTGAVASMIVAKYPSINAINFDLPHVIQDAPAFSGVEHLGGDMFDGVPKGDAIFIKWICHDWSDEHCLKLLKNCYAALPDHGKVIVAEYILPPSPDPSIATKVVIHTDALMLAYNPGGKERTEKEFQALAMASGFRGFKVASCAFNTYVMEFLKTA
[3]
  Km: 11.4 ± 1.6 µM
  Vmax: 96.1 ± 3.8 nmol/mg/min
  kcat: 0.069 ± 0.009 s⁻¹
[4]
  Km: 105.0 ± 11.2 µM
  Vmax: 0.101 µmol/min/mg
  kcat: 0.072 ± 0.003 s⁻¹
  kcat/Km: 686 M⁻¹ s⁻¹
[5]
  Km: 14.7 ± 2.3 µM
  Vmax: 46.6 ± 1.5 nmol/mg/min
  kcat: 0.033 ± 0.001 s⁻¹

B3: C. breweri (iso)eugenol-4-O-methyltransferase (SEQ ID NO. 1) variant MOMT8-1, T133L/E165I/F175I/F166W/H169F/M26H/S30R/V33S (Clarkia breweri; … (protein)
chain: STGNAEIQIIPTHSSDEEANLFAHQLARAASLPMALKAAIELDVLEIMAKSVPPSGYISPAEIAAQLPTTNPEAPVMLDRVLRLLASYSVVTYTLRELPSGKVERLYGLAPVCKFLTKNEDGVSLAPFLLLATDKVLLEPWFYLKDAILEGGIPFNKAYGMNIWDYFGTDHRINKVFNKGMSSNSTITMKKILEMYNGFEGLTTIVDVGGGTGAVASMIVAKYPSINAINFDLPHVIQDAPAFSGVEHLGGDMFDGVPKGDAIFIKWICHDWSDEHCLKLLKNCYAALPDHGKVIVAEYILPPSPDPSIATKVVIHTDALMLAYNPGGKERTEKEFQALAMASGFRGFKVASCAFNTYVMEFLKTA
[6]
  Km: 16.1 ± 1.3 µM
  Vmax: 68.1 ± 1.6 nmol/mg/min
  kcat: 0.049 ± 0.001 s⁻¹
[7]
  Km: 26.3 ± 4.1 µM
  Vmax: 8.5 ± 0.3 nmol/mg/min
  kcat: 0.006 ± 0.000 s⁻¹

B4: C. breweri (iso)eugenol-4-O-methyltransferase (SEQ ID NO. 1) variant MOMT8-2, T133L/E165I/F175I/F166W/H169F/M26S/S30F/V33Y (Clarkia breweri; … (protein)
chain: STGNAEIQIIPTHSSDEEANLFASQLAFAAYLPMALKAAIELDVLEIMAKSVPPSGYISPAEIAAQLPTTNPEAPVMLDRVLRLLASYSVVTYTLRELPSGKVERLYGLAPVCKFLTKNEDGVSLAPFLLLATDKVLLEPWFYLKDAILEGGIPFNKAYGMNIWDYFGTDHRINKVFNKGMSSNSTITMKKILEMYNGFEGLTTIVDVGGGTGAVASMIVAKYPSINAINFDLPHVIQDAPAFSGVEHLGGDMFDGVPKGDAIFIKWICHDWSDEHCLKLLKNCYAALPDHGKVIVAEYILPPSPDPSIATKVVIHTDALMLAYNPGGKERTEKEFQALAMASGFRGFKVASCAFNTYVMEFLKTA
[8]
  Km: 15.9 ± 1.7 µM
  Vmax: 0.0322 µmol/min/mg
  kcat: 0.023 ± 0.001 s⁻¹
  kcat/Km: 1450 M⁻¹ s⁻¹
[9]
  Km: 57.9 ± 13.0 µM
  Vmax: 0.123 µmol/min/mg
  kcat: 0.088 ± 0.006 s⁻¹
  kcat/Km: 1520 M⁻¹ s⁻¹
[10]
  Km: 35.2 ± 9.8 µM
  Vmax: 0.0379 µmol/min/mg
  kcat: 0.027 ± 0.002 s⁻¹
  kcat/Km: 767 M⁻¹ s⁻¹

B5: C. breweri (iso)eugenol-4-O-methyltransferase (SEQ ID NO. 1) variant MOMT8-3, T133L/E165I/F175I/F166W/H169F/M26S/S30F/V33G (Clarkia breweri; … (protein)
chain: STGNAEIQIIPTHSSDEEANLFASQLAFAAGLPMALKAAIELDVLEIMAKSVPPSGYISPAEIAAQLPTTNPEAPVMLDRVLRLLASYSVVTYTLRELPSGKVERLYGLAPVCKFLTKNEDGVSLAPFLLLATDKVLLEPWFYLKDAILEGGIPFNKAYGMNIWDYFGTDHRINKVFNKGMSSNSTITMKKILEMYNGFEGLTTIVDVGGGTGAVASMIVAKYPSINAINFDLPHVIQDAPAFSGVEHLGGDMFDGVPKGDAIFIKWICHDWSDEHCLKLLKNCYAALPDHGKVIVAEYILPPSPDPSIATKVVIHTDALMLAYNPGGKERTEKEFQALAMASGFRGFKVASCAFNTYVMEFLKTA
[11]
  Km: 23.3 ± 2.4 µM
  Vmax: 0.0735 µmol/min/mg
  kcat: 0.053 ± 0.001 s⁻¹
  kcat/Km: 2270 M⁻¹ s⁻¹
[12]
  Km: 65.4 ± 13.0 µM
  Vmax: 0.145 µmol/min/mg
  kcat: 0.104 ± 0.006 s⁻¹
  kcat/Km: 1590 M⁻¹ s⁻¹
[13]
  Km: 35.9 ± 9.8 µM
  Vmax: 0.0515 µmol/min/mg
  kcat: 0.036 ± 0.003 s⁻¹
  kcat/Km: 1000 M⁻¹ s⁻¹

B6: MOMT-5: previously generated modified C. breweri (iso)eugenol-4-O-methyltransferase (m-IEMT), substitutions T133L/E165I/F175I/F166W/H169F (protein, UniProt O04385 3-368, looked up, variant T133L E165I F175I F166W H169F)
(Iso)eugenol …: STGNAEIQIIPTHSSDEEANLFAMQLASAAVLPMALKAAIELDVLEIMAKSVPPSGYISPAEIAAQLPTTNPEAPVMLDRVLRLLASYSVVTYTLRELPSGKVERLYGLAPVCKFLTKNEDGVSLAPFLLLATDKVLLEPWFYLKDAILEGGIPFNKAYGMNIWDYFGTDHRINKVFNKGMSSNSTITMKKILEMYNGFEGLTTIVDVGGGTGAVASMIVAKYPSINAINFDLPHVIQDAPAFSGVEHLGGDMFDGVPKGDAIFIKWICHDWSDEHCLKLLKNCYAALPDHGKVIVAEYILPPSPDPSIATKVVIHTDALMLAYNPGGKERTEKEFQALAMASGFRGFKVASCAFNTYVMEFLKTA
[14]
  Specific activity with 5-hydroxyl coniferyl alcohol, iso-sinapyl alcohol: 43.5 ± 4.0 nmol/mg/min
[15]
  catalytic efficiency (kcat/Km) for coniferyl alcohol higher than for sinapyl alcohol: less than 3 fold
[16]
  Specific activity with ferulic acid as the substrate: 7.84 nmol/min/mg
